The results in this text go back to patent US20220251237A1 (R P SCHERER TECHNOLOGIES, published 2022).

For experiment [1], the target named is T1, human glypican-1 His-tagged protein (R&D Systems) (human, UniProt P35052 24-530, limits assumed).
T1 construct: Bought; not shown: His tag
T1 sequence (looked up): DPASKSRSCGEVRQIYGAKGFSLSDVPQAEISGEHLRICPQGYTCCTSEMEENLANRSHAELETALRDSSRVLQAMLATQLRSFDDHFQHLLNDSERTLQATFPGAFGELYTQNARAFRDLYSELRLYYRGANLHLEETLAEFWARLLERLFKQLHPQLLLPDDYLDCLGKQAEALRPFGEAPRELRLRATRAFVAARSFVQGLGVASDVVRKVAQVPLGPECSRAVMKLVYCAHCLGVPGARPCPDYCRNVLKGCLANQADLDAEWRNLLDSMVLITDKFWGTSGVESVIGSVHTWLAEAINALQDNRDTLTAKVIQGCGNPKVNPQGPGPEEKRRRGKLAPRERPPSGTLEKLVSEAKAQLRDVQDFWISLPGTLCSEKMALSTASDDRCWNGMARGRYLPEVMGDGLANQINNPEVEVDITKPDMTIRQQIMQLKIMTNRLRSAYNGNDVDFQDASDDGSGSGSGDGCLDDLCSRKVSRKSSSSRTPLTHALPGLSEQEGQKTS
Briefly: ELISA, plate coated with 1 µg/mL His-tagged glypican. As to the method:
(§1) To perform the ELISA, Maxisorp 96-well plates (Nunc) were coated overnight at 4° C. with 1 μg/mL of human glypican His-tagged proteins (glypican-1, glypican-2, glypican-3, glypican-5, and glypican-6 all from R&D Systems) in PBS. The plates were blocked with casein buffer (ThermoFisher), and then CAT-07 was plated in an 11-step series of 2-fold dilutions starting at 150 ng/mL. The plates was incubated, shaking, at room temperature for 2 h. After washing in PBS 0.1% Tween-20, bound analyte was detected with a donkey anti-human Fc-γ-specific horseradish peroxidase (HRP)-conjugated secondary antibody. Signals were visualized with Ultra TMB (Pierce) and quenched with 2 N H₂SO₄. Absorbance at 450 nm was determined using a Molecular Devices SpectraMax M5 plate reader and the data were analyzed using GraphPad Prism.

For experiment [2], the target named is T2, human glypican-2 His-tagged protein (R&D Systems) (human, UniProt Q8N158 24-554, limits assumed).
T2 construct: Bought; not shown: His tag
T2 sequence (looked up): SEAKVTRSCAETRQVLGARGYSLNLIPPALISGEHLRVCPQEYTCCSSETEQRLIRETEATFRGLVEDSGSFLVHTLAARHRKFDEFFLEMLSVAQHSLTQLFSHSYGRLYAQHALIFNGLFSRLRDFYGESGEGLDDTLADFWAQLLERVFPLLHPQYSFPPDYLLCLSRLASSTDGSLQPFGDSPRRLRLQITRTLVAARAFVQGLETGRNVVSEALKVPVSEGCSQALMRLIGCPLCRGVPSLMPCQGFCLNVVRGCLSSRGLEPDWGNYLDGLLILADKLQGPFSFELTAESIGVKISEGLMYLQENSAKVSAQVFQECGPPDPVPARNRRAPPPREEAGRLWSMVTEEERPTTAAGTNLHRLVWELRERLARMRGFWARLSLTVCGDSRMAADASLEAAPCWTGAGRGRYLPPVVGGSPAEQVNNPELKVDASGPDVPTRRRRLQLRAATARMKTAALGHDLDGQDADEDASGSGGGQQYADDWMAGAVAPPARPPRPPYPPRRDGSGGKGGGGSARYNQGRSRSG
Described as above. Here is the method: as §1

The target in experiment [3] is T3, human glypican-5 His-tagged protein (R&D Systems) (human, UniProt P78333 25-551, limits assumed).
T3 construct: Bought; not shown: His tag
T3 sequence (looked up): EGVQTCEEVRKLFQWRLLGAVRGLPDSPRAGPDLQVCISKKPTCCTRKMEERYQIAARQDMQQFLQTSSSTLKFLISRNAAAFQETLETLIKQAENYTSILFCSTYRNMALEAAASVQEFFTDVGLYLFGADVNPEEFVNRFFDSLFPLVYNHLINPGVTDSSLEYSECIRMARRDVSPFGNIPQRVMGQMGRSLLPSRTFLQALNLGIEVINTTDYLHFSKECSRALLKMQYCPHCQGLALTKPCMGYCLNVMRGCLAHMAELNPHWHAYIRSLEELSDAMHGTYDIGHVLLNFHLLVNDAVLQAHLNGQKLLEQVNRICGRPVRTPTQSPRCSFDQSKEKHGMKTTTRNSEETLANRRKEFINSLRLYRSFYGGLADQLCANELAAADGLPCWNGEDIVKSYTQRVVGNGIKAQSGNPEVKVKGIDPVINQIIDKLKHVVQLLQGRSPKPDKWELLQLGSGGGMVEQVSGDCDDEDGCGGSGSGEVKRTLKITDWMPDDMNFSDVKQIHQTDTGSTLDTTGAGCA
The experiment is described as above. Here is the method: as §1

Experiment [4] has as its target T4, human glypican-6 His-tagged protein (R&D Systems) (human, UniProt Q9Y625 24-529, limits assumed).
T4 construct: Bought; not shown: His tag
T4 sequence (looked up): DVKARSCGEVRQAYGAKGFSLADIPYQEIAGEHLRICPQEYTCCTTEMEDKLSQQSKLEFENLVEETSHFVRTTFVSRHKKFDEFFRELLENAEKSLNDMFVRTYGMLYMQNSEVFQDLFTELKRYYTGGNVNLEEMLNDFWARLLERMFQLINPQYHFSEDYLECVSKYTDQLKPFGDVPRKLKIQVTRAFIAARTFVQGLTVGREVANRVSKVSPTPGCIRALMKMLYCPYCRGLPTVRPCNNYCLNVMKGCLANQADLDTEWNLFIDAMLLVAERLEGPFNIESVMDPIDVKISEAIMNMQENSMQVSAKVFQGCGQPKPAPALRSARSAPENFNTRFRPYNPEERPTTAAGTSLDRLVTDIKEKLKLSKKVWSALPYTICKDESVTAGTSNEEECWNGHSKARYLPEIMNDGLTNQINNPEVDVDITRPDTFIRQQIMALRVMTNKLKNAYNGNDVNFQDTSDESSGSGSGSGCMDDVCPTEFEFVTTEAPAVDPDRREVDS
The experiment is described as above. As to the method: as §1

In experiment [5] the target is T5, human glypican-3-His (R&D Systems) (human, UniProt P51654 25-559).
T5 construct: Bought His-tagged protein; also called recombinant human glypican-3 protein; GPC3; not shown: His tag
T5 sequence (P51654 25-559 limits assumed): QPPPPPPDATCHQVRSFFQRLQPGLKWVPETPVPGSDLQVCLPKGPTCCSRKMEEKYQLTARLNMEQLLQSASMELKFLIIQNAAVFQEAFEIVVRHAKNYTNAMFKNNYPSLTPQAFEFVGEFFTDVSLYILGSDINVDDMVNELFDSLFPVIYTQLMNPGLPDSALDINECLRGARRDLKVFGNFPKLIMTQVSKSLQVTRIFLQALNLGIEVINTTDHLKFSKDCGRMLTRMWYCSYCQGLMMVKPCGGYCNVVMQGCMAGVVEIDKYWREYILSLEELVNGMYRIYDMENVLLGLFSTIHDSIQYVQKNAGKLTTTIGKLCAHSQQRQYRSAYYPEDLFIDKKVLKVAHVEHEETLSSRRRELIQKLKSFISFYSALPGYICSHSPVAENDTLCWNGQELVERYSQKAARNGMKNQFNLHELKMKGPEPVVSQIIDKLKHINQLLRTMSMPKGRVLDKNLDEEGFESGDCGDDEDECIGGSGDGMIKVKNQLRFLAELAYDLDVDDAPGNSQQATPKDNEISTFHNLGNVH
Briefly: ELISA, plate coated with 1 µg/mL human glypican-3-His. Here is the method: as §1, with “human glypican-3-His (R&D” for “human glypican His-tagged proteins (glypican-1, glypican-2, glypican-3, glypican-5, and glypican-6 all from R&D”, “The plate was” for “The plates were”, “The plate” for “The plates”

B1: CAT-07 monoclonal antibody (antibody, human IgG1, kappa, V domains shown)
VH: QVQLVQSGAEVKKPGASVKVSCKASGYTFTSYFLHWVRQAPGQGLEWMGIIDPPTGRTTYAQKFQGRVTMTRDTSTSTVYMELSSLRSEDTAVYYCARGNYGGRYFDYWGQGTLVTVSS
VL: not shown
On to B1, for which the binding result in experiment [1] is listed as “no binding (tested: 2-fold dilutions starting at 150 ng/mL)”; in experiment [2], “no binding (tested: 2-fold dilutions starting at 150 ng/mL)”; in experiment [3] it was “no binding (tested: 2-fold dilutions starting at 150 ng/mL)”; in experiment [4] it was “no binding (tested: 2-fold dilutions starting at 150 ng/mL)”; in experiment [5], “binds”.
